Target: mouse calmodulin, bacterially expressed and biotinylated (mouse, UniProt P0DP26 1-149, biotinylated (EZ-link Sulfo-NHS-LC-Biotinylation kit))
Assay: far-Western, overlay or dot blot

B1: Pcdp1-2, fragment aa 447–530 of mouse Pcdp1 with the uncharacterized predicted CaM-binding motif (domain or fragment)
chain: PLVNNVWLTRHRAQRRFQQAARKIMLERRLLSMLGAIRGMDKESILRKIIQVNGKLIQGENPSRGRRAHLKQEDNIWRYSLESE
binding result: binds

— PMC2867295 (The Journal of Cell Biology, 2010)
